Substitutions are numbered along the chain they refer to. Numbers in names are those of the source.
What was measured:
[1] = biological target: T1, Agrocybe aegerita peroxygenase AaeUPO1 variant JaWa (PaDa-I + G241D, R257K: V57A, L67F, V75I, G241D, I248V, R257K, F311L), SEQ ID NO: 24 (Cyclocybe aegerita, UniProt B9W4V6, F354L/G284D/I291V/L110F/R300K/V100A/V118I); experiment: Kinetic constants, JaWa variant
T1 sequence (B9W4V6 44-371 V100A/L110F/V118I/G284D/I291V/R300K/F354L): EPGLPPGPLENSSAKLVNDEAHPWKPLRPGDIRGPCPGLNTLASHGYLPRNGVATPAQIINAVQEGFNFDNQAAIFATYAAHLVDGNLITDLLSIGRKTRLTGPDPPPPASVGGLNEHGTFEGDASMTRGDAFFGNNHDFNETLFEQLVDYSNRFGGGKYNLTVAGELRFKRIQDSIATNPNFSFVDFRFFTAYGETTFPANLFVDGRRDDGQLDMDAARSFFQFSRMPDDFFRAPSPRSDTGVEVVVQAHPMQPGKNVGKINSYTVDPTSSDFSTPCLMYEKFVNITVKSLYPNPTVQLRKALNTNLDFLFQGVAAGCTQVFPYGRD
Method: In order to calculate the values of Km and kcat, values of Vmax were represented at substrate concentrations and the hyperbole function was adjusted (using SigmaPlot 10.0, wherein the parameter a is equal to kcat and the parameter b, to Km).
Additionally, the kinetic values of the two variants were determined using substrates of both peroxygenase and peroxidase activity (Table 2), as described in the section on materials and methods.

Optimum pH for DMP = assay type: biochemical
Optimum pH for ABTS = assay type: biochemical
[2] = Naphthalene transformation reaction analysed by HPLC-PDA; assay type: biochemical
Method: A) Products formed after 15 minutes of reaction stopped with 20 μL of HCl 37% (PaDa-I, black bars; JaWa, grey bars). […] C) and D) Monitoring of the reaction for 270 minutes (without adding HCl) for the PaDa-I (C) and JaWa (D) mutants.
The reactions were analysed by means of chromatography in reverse phase (HPLC). The equipment is composed by a tertiary pump (Varian-Agilent Technologies, USA) coupled to an autosampler (Merck Millipore, MA, USA); an ACE C18 PFP column was used for separation (pentafluorophenyl, 15 cm×4.6 cm) at 45° C. and detection was performed using a photodiode detector (PDA) (Varian-Agilent Technologies, USA). The mobile phase selected was 70% methanol and 30% ddH2O (in both cases with 0.1% of acetic acid) at a flow rate of 0.8 mL/min. The reaction was quantified at 268 nm (based on standard HPLCs). […] For long reaction times, the conditions used were those described earlier but without stopping the reaction with HCl. A sample of 10 μL was injected and analysed at different reaction times (from 1 to 270 minutes).

[3] = Thermostability assay (T50), culture supernatants, residual activity with ABTS; assay type: physicochemical; settings: culture supernatants; temperature at which the enzyme retains 50% of its activity after 10 minutes of incubation
Method: An individual S. cerevisiae colony was selected with the corresponding clone (grown in a SC drop-out minimal medium plate: 100 mL of 6.7% yeast nitrogen base, 100 mL of 19.2 g/L uracil-free amino acid supplement, 100 mL of 20% glucose, 1 mL of 25 g/L chloramphenicol and ddH2O up to 1,000 mL) was inoculated in 2 mL of selective minimal medium (as in the SC plate medium, but with 20 g of bacto agar and rafinose instead of galactose) and was incubated for 48 hour at 30° C. and 220 RPM. An aliquot of this culture was taken such that, upon inoculating it in 5 mL of new minimal medium, optical density at 600 nm would have a value of 0.25 (optical density, OD600=0.25). This starter was incubated until completing two full growth cycles (between 6 and 8 hours), at which time 1 mL of cells were taken to inoculate 9 mL of expression medium in a 100 mL flask (OD600=0.1). This culture of each clone was incubated for 72 hours at 25° C. and 220 RPM (at peak UPO activity; OD600=25-30), the cells were separated by centrifugation (10 minutes at 4,500 RPM and 4° C.) and supernatant was filtered (using a glass and nitrocellulose filter with a pore size of 0.45 μm). Appropriate dilutions of the supernatants were prepared so that aliquots of 20 μL would give rise to a linear response in kinetic mode. 50 μL of supernatant were used for each point in a temperature gradient created by means of thermocyclator, from 30 to 80° C. After incubating for 10 minutes, the aliquots were cooled in ice for 10 minute and tempered at room temperature for 5 minutes. […] The thermostability values were calculated in accordance with the ratio between the residual activities incubated at different temperatures and the value of initial activity at room temperature. The value of T50 was determined as the value of the temperature at which the protein loses 50% of it initial activity after incubating for 10 minutes.
An individual S. cerevisiae colony was selected with the corresponding clone (grown on a SC drop-out minimal medium plate: 100 mL of 6.7% yeast nitrogen base, 100 mL of 19.2 g/L uracil-free amino acid supplement, 100 mL of 20% glucose, 1 mL of 25 g/L chloramphenicol and ddH2O up to 1,000 mL), was inoculated in 3 mL of selective minimal medium (like the SC plate medium, but with 20 g of bacto agar and rafinose instead of galactose) and incubated for 48 hours at 30° C. and 220 RPM. […] The thermostability values were calculated in accordance with the ratio between the residual activities incubated at different temperatures and the value of initial activity at room temperature. The value of T50 was determined as as the temperature value at which the protein loses 50% of its initial activity after incubating for […].

[4] = Optimum pH for naphthalene; assay type: biochemical
[5] = Isoelectric point by two-dimensional electrophoresis; assay type: physicochemical
Method: The analyses were performed using an Autoflex III MALDI-TOF-TOF unit with smartbeam laser (Bruker Daltonics). The samples were evaluated in positive mode. The method was calibrated using BSA with standard, thereby covering a range of 15,000 to 70,000 Da. In order to determine the isoelectric point of the UPO variants, 8 μg of pure enzyme were subjected to two-dimensional electrophoresis. These experiments were carried out at the Proteomic and Genomic Service of the Biological Research Centre (CIB-CSIC, Spain).

[6] = Total turnover number (TTN) for synthesis of 5′-hydroxypropranolol from propranolol; assay type: biochemical; settings: 0.03 μM enzyme, propranolol, 2 mM H2O2 added every 10 minutes
Method: FIG. 15 Calculation of the total turnover number (TTN) of AaeUPO and SoLo.
(§1) The reactions were analysed by means of chromatography in reverse phase (HPLC). The equipment was composed of a tertiary pump (Varian-Agilent Technologies, USA) coupled to an autosampler (Merck Millipore, MA, USA); for the separation, a Zorbax Eclipse plus C18 column (15 cm×4.6 cm) at 40° C. was used and the detection was performed using a photodiode detector (PDA) (Varian, Agilent Technologies, USA). The mobile phase selected was a gradient from 10% methanol and 90% ddH2O (in both cases with 0.1% of acetic acid) up to 90% methanol and 10% ddH2O at a flow rate of 0.8 mL/min. The reaction was quantified at 280 nm (based on HPLC standards). […] The standard deviations were less than 5% in all cases.

[7] = Turnover with 5′-hydroxypropranolol as substrate, HPLC; assay type: biochemical; settings: 0.03 μM enzyme, 0.4 mM 5′-hydroxypropranolol, 2 mM H2O2, absence of ascorbic acid
Method: FIG. 14 Turnover rates of AaeUPO, JaWa and SoLo. […] The disappearance of the product 5′-hydroxypropranolol can be observed due to the formation of its corresponding quinone by means of the peroxidase activity of the enzyme.
as §1

[8] = substrate: CC(C)NCC(O)COc1cccc2ccccc12; experiment: purified protein, by the assay type
[9] = substrate: OO; experiment: purified protein, by the assay type; settings: other: H2O2, benzyl alcohol as substrate at saturation, pH 7.0
[10] = substrate: CCn1c(=NN=c2sc3cc(S(=O)(=O)O)ccc3n2CC)sc2cc(S(=O)(=O)O)ccc21; experiment: purified protein, by the assay type; settings: other: 100 mM sodium phosphate/citrate pH 4.0, 2 mM H2O2 (ABTS); pH 4.0
[11] = 15 minutes of reaction stopped with HCl, 6.6 nM enzyme, 1 mM naphthalene, 1 mM H2O2
[12] = other: 100 mM potassium phosphate pH 7.0, 2 mM H2O2 (propranolol)
[13] = other: 100 mM potassium phosphate pH 7.0, 2 mM H2O2 (DMP, propranolol)

c1ccc2ccccc2c1 [Naphthalene, naphthalene]
decrease in Km ([1]; JaWa vs PaDa-I, naphthalene): 3 times

OO [H2O2, hydrogen peroxide]
Km ([1]; H2O2, benzyl alcohol as substrate at saturation, pH 7.0): 1250 µM

CC(C)NCC(O)COc1cccc2c(O)cccc12 (stereo not drawn) [5′-hydroxypropranolol]
increase in kcat (up to) ([1]; summary of advantages, variant not named, matches JaWa vs PaDa-I): up to 3.6 fold

B1: PaDa-I: AaeUPO1 mutant with L67F, I248V, F311L, V75I, V57A and evolved signal peptide, SEQ ID NO: 18; previously published parental (protein)
chain: MKYFPLFPTLVYAVGVVAFPDYASLAGLSQQELDAIIPTLEAREPGLPPGPLENSSAKLVNDEAHPWKPLRPGDIRGPCPGLNTLASHGYLPRNGVATPAQIINAVQEGFNFDNQAAIFATYAAHLVDGNLITDLLSIGRKTRLTGPDPPPPASVGGLNEHGTFEGDASMTRGDAFFGNNHDFNETLFEQLVDYSNRFGGGKYNLTVAGELRFKRIQDSIATNPNFSFVDFRFFTAYGETTFPANLFVDGRRDDGQLDMDAARSFFQFSRMPDDFFRAPSPRSGTGVEVVVQAHPMQPGRNVGKINSYTVDPTSSDFSTPCLMYEKFVNITVKSLYPNPTVQLRKALNTNLDFLFQGVAAGCTQVFPYGRD
Optimum pH for DMP (Optimum pH for DMP): 6.0
Optimum pH for ABTS (Optimum pH for ABTS): 4.0
regioselectivity, 1-naphthol [2, 11]: 92%
regioselectivity, 2-naphthol [2, 11]: 8%
time at which formation of the epoxide intermediary reached its maximum ([2]; 270 minute reaction at pH 7.0): ~40 min
production of 1-naphthol ([2]; 270 minutes at pH 7.0 without stopping the reaction): 0.14 mM
total turnover numbers (TTN), 1-naphthol ([2]; calculated using the production value of 1-naphthol after 270 minutes): 20,000 μmoles of product/μmoles of en
regioselectivity against 1-naphthol ([2]; long reaction times, 270 minutes at pH 7.0 without stopping the reaction): 97%
Thermal stability, T50 [3]: 57.6 °C
Optimum pH for naphthalene [4]: 6.0
pI [5]: 5.5

B2: AaeUPO1: unspecific peroxygenase UPO (E.C. 1.11.2.1) of Agrocybe aegerita, wild type, SEQ ID NO: 2 / 4 (protein, listed as Agrocybe aegerita)
chain: B1 chain with A100V, F110L, I118V, V291I, L354F
TTNs, With ascorbic acid ([6]; 4 mM ascorbic acid): 14,000
TTNs, Without ascorbic acid ([6]; absence of ascorbic acid): 3,000
Optimum pH for DMP (Optimum pH for DMP): 7.0
Optimum pH for ABTS (Optimum pH for ABTS): 4.0
Optimum pH for naphthalene [4]: 6.5
5′-hydroxypropranolol maintained without oxidising [7]: oxidise practically the entire product
pI [5]: 4.9-5.7

B3: Agrocybe aegerita unspecific peroxygenase AaeUPO1 (UPO, EC 1.11.2.1), wild type, SEQ ID NO: 2 (SEQ ID NO: 4 with wild-type signal peptide) (Cyclocybe aegerita) (protein)
chain: T1 sequence (B9W4V6 44-371 V100A/L110F/V118I/G284D/I291V/R300K/F354L) with A57V, F67L, I75V, D241G, V248I, K257R, L311F
Km [8, 12]: 2,239 ± 333 μM
kcat [8, 12]: 150 ± 12 s⁻¹
kcat/Km [8, 12]: 67000 ± 4800 M⁻¹ s⁻¹
Km [9]: 1,370 ± 162 μM
kcat [9]: 290 s⁻¹
kcat/Km [9]: 210000 M⁻¹ s⁻¹
Km [10]: 25-0 ± 2.5 μM
kcat [10]: 221 s⁻¹
kcat/Km [10]: 8.8e+06 M⁻¹ s⁻¹

B4: Agrocybe aegerita peroxygenase AaeUPO1 variant SoLo (JaWa + F191S: V57A, L67F, V75I, F191S, G241D, I248V, R257K, F311L), SEQ ID NO: 42 (Cyclocybe aegerita; … (protein)
chain: T1 sequence (B9W4V6 44-371 V100A/L110F/V118I/G284D/I291V/R300K/F354L) with F191S
Km [8, 12]: 391 ± 97 µM
kcat [8, 12]: 497 ± 35 s⁻¹
kcat/Km [8, 12]: 1.3e+06 ± 20000 M⁻¹ s⁻¹
Km [9]: 1,430 ± 153 μM
kcat [9]: 446 s⁻¹
kcat/Km [9]: 310000 ± 18000 M⁻¹ s⁻¹

B5: Agrocybe aegerita peroxygenase AaeUPO1 variant JaWa (PaDa-I + G241D, R257K: V57A, L67F, V75I, G241D, I248V, R257K, F311L), SEQ ID NO: 24 (Cyclocybe aegerita; … (protein)
chain: T1 sequence (B9W4V6 44-371 V100A/L110F/V118I/G284D/I291V/R300K/F354L)
Km [8, 13]: 244 ± 92 µM
kcat [8, 13]: 765 ± 76 s⁻¹
kcat/Km [8, 13]: 3.1e+06 ± 90000 M⁻¹ s⁻¹
